From patent US20210032312A1 (Janssen / Centocor, published 2021)

B1: P282AR9P1356_A10 (designed binder)
chain: LPAPKNLVVSRVTEDSARLSWHTATNSFDSFLIQYQESEKVGEAIVLTVPGSERSYDLTGLKPGTEYTVSIYGVDVDYNPTGRPVSSNPLSAIFTT
notes: FN3 domain
B2: P283AR9P1362_D7 (designed binder)
chain: LPAPKNLVVSRVTEDSARLSWVKRATSFDSFLIQYQESEKVGEAIVLTVPGSERSYDLTGLKPGTEYTVSIYGVDVKYDIDSRPISSNPLSAIFTT
notes: FN3 domain
B3: P283AR9P1362_B8 (designed binder)
chain: LPAPKNLVVSRVTEDSARLSWWTSPLPFDSFLIQYQESEKVGEAIVLTVPGSERSYDLTGLKPGTEYTVSIYGVDVKYDIDSRPISSNPLSAIFTT
notes: FN3 domain
B4: P283AR9P1362_C12 (designed binder)
chain: LPAPKNLVVSRVTEDSARLSWAKNLHSFDSFLIQYQESEKVGEAIVLTVPGSERSYDLTGLKPGTEYTVSIYGVDVKYDIDSRPISSNPLSAIFTT
notes: FN3 domain
B5: P283AR9P1362_A3 (designed binder)
chain: LPAPKNLVVSRVTEDSARLSWKRIDSPFDSFLIQYQESEKVGEAIVLTVPGSERSYDLTGLKPGTEYTVSIYGVDVKYDIDSRPISSNPLSAIFTT
notes: FN3 domain
B6: P283AR9P1362_A4 (designed binder)
chain: LPAPKNLVVSRVTEDSARLSWIGHDSGFDSFLIQYQESEKVGEAIVLTVPGSERSYDLTGLKPGTEYTVSIYGVDVKYDIDSRPISSNPLSAIFTT
notes: FN3 domain
B7: P283AR9P1362_D4 (designed binder)
chain: LPAPKNLVVSRVTEDSARLSWVREHDSFDSFLIQYQESEKVGEAIVLTVPGSERSYDLTGLKPGTEYTVSIYGVDVKYDIDSRPISSNPLSAIFTT
notes: FN3 domain
B8: P283AR9P1362_D3 (designed binder)
chain: LPAPKNLVVSRVTEDSARLSWPVESNAFDSFLIQYQESEKVGEAIVLTVPGSERSYDLTGLKPGTEYTVSIYGVDVEYDQHGRPRWSNPLSAIFTT
notes: FN3 domain
B9: P282AR9P1356_H6 (designed binder)
chain: LPAPKNLVVSRVTEDSARLSWRKRANSFDSFLIQYQESEKVGEAIVLTVPGSERSYDLTGLKPGTEYTVSIYGVHVEYDQHGRPRWSNPLSAIFTT
notes: FN3 domain
B10: P283AR9P1362_G3 (designed binder)
chain: LPAPKNLVVSRVTEDSARLSWVKRATSFDSFLIQYQESEKVGEAIVLTVPGSERSYDLTGLKPGTEYTVSIYGVDVKWEGNRPVASNPLSAIFTT
notes: FN3 domain
B11: P283AR9P1362_C7 (designed binder)
chain: LPAPKNLVVSRVTEDSARLSWVKRATSFDSFLIQYQESEKVGEAIVLTVPGSERSYDLTGLKPGTEYTVSIYGVDVRYNEGQPIWSNPLSAIFTT
notes: FN3 domain
B12: P282AR9P1356_A4 (designed binder)
chain: LPAPKNLVVSRVTEDSARLSWVKRPNSFDSFLIQYQESEKVGEAIVLTVPGSERSYDLTGLKPGTEYTVSIYGVDVVDYEGRPRWSNPLSAIFTT
notes: FN3 domain
B13: P283AR9P1362_F8 (designed binder)
chain: LPAPKNLVVSRVTEDSARLSWGYYHGHFDSFLIQYQESEKVGEAIVLTVPGSERSYDLTGLKPGTEYTVSIYGVDVKWEGNRPVASNPLSAIFTT
notes: FN3 domain
B14: P282AR9P1356_A6 (designed binder)
chain: LPAPKNLVVSRVTEDSARLSWSKTDSSFDSFLIQYQESEKVGEAIVLTVPGSERSYDLTGLKPGTEYTVSIYGVDVVYIEGNPVFSNPLSAIFTT
notes: FN3 domain
B15: P282AR9P1356_B9 (designed binder)
chain: LPAPKNLVVSRVTEDSARLSWPEGDRPFFDSFLIQYQESEKVGEAIVLTVPGSERSYDLTGLKPGTEYTVSIYGVDVKWEGNRPVASNPLSAIFTT
notes: FN3 domain
B16: P282AR9P1356_H1 (designed binder)
chain: LPAPKNLVVSRVTEDSARLSWIPNPSSFDSFLIQYQESEKVGEAIVLTVPGSERSYDLTGLKPGTEYTVSIYGVDVVFDPVGFPSHSNPLSAIFTT
notes: FN3 domain
B17: P282AR9P1356_D3 (designed binder)
chain: LPAPKNLVVSRVTEDSARLSWTRHETSFDSFLIQYRESEKVGEAIVLTVPGSERSYDLTGLKPGTEYTVSIYGVVVEYDAAGNPKYSNPLSAIFTT
notes: FN3 domain

Experiments:
In house human CD8A-Fc = target: T1, In house human CD8A-Fc (human, UniProt P01732 22-182, limits assumed); assay: SPR (ProteOn), captured hCD8A-Fc
T1 construct: Captured on goat anti-human Fc on a ProteOn GLC chip; also called hCD8A-Fc; recombinant human CD8 alpha; not shown: linker with flag (and polyhistidine) tag and Fc of human IgG1
T1 sequence (P01732 22-182 limits assumed): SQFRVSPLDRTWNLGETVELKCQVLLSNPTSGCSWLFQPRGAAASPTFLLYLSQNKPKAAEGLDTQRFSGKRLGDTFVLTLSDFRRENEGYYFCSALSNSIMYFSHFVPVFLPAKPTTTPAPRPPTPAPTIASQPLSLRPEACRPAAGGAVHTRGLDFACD
Procedure: Purified anti-CD8A FN3 domains were subjected to off-rate analysis using a Proteon surface plasmon resonance instrument in order to pick clones with the slowest off-rates for further characterization.
The immobilized GAH-Fc IgG densities averaged about 6000 Response Units (Ru) with less than 1% variation among different channels. In house human CD8A-Fc was captured in vertical orientation at 3 different ligand densities, 10, 5, 2.5 μg/ml for 5 minutes at 30 ul/minute flowrate. All FN3 domains were normalized to a 3 μM concentration, and tested for binding in horizontal orientation. All 6 analyte channels were used for FN3 domains to maximize the screening throughput. The dissociation phase was monitored for 15 minutes at a flow rate of 100 μl/min using PBST as running buffer. […] Data analyses were performed using Bio-Rad ProteOn Manager software (version 3.1.0.6). Raw data were double referenced by subtraction of the interspot (empty chip surface, no protein immobilized or captured) signals to correct the non-specific binding of the FN3 domain to the pre-coated GAH-Fc IgG surface, followed by a double correction using empty channel L6 where no hCD8A-Fc was captured. The processed binding data were locally fit to a 1:1 simple Langmuir binding model to extract the koff for each FN3 domain binding to captured hCD8A-Fc.

[1] = target: T2, cynomolgus monkey CD8A on primary cynomolgus monkey CD8+ T cells (cynomolgus monkey, UniProt P01732 23-235 (human entry)); assay: flow cytometry, cyno CD8+ T cells, 2 uM FN3
T2 construct: also called Cyno CD8alpha
T2 sequence (P01732 other isoform, or with tags, fused parts or gaps limits assumed): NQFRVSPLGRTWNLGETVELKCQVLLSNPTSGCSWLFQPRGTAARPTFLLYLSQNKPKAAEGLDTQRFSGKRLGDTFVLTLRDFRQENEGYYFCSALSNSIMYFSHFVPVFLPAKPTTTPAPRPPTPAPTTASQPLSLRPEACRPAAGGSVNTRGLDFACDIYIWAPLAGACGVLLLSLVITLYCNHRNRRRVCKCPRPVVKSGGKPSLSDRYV
Procedure: (§1) Binding of the 190 ELISA hits to human and cynomologous monkey primary CD8 T cells was assessed by flow cytometry. The FN3 domain molecules were diluted to 2 μM and 0.2 μM in PBS and incubated with human or cynomologous monkey CD8+ T cells in 96-well format. After 1 hour at 4 C, the cells were washed once with PBS and then resuspended with an anti-FN3 domain antibody (PAB25) solution. Following this incubation, the cells were washed twice with PBS and a PE conjugated secondary antibody and a viability dye were added. Finally, cells were washed and resuspended in PBS for flow cytometric analysis using a BD Canto Instrument. Cells were gating on live cells and median fluorescence intensity of the bound Centyrins (PE channel) was calculated using Cytobank software.

[2] = target: T3, human CD8 alpha (CD8A) on primary human CD8+ T cells (human, UniProt P01732 22-235); assay: flow cytometry, human CD8+ T cells, 2 uM FN3
T3 construct: whole, on cells; also called hCD8A
T3 sequence (P01732 22-235): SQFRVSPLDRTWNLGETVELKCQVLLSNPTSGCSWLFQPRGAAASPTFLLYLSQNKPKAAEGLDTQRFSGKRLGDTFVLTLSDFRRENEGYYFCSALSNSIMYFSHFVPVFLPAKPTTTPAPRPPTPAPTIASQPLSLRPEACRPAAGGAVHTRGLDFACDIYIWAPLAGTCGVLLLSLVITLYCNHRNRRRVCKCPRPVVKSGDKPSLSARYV
Procedure: as §1

[3] = target: T2, cynomolgus monkey CD8A on primary …; assay: flow cytometry, cyno CD8+ T cells, 0.2 uM FN3
Procedure: as §1

[4] = target: T3, human CD8 alpha (CD8A) on primary human …; assay: flow cytometry, human CD8+ T cells, 0.2 uM FN3
Procedure: as §1

| Binder | koff (In house human CD8A-Fc) [s⁻¹] | Cyno T-cell Binding 2 uM (MFI) [1] [MFI] | Human T-cell Binding 2 uM (MFI) [2] [MFI] | Cyno T-cell Binding 0.2 uM (MFI) [3] [MFI] | Human T-cell Binding 0.2 uM (MFI) [4] [MFI] |
| --- | --- | --- | --- | --- | --- |
| B1 | 0.000291 | 10600 | 4260 | 3120 | 2090 |
| B2 | 0.000118 | 27500 | 17300 | 4850 | 3350 |
| B3 | 0.000648 | 12900 | 5740 | 2270 | 1580 |
| B4 | 9.94e-05 | 14800 | 7060 | 3830 | 2620 |
| B5 | 0.00153 | 17300 | 5540 | 3530 | 1400 |
| B6 | 0.000302 | 21200 | 6310 | 4400 | 2540 |
| B7 | 9.72e-05 | 25700 | 9830 | 4100 | 2980 |
| B8 | 0.000125 | 34600 | 9500 | 6050 | 3480 |
| B9 | 8.08e-05 | 14400 | 6650 | 3200 | 2640 |
| B10 | 9.45e-05 | 35300 | 18500 | 9200 | 4310 |
| B11 | 0.000186 | 19700 | 11000 | 5520 | 2790 |
| B12 | 8.61e-05 | 26400 | 16700 | 8630 | 4380 |
| B13 | 0.000112 | 23700 | 9200 | 4570 | 3170 |
| B14 | 9.73e-05 | 31400 | 10800 | 5780 | 3440 |
| B15 | 0.000295 | 36400 | 17200 | 5440 | 3670 |
| B16 | 0.000114 | 46300 | 14700 | 5700 | 3230 |
| B17 | 0.000158 | 13900 | 5960 | 3360 | 2400 |
